B1: Krev interaction trapped protein 1 (Homo sapiens), O00522 (parent)
chain: MGNPENIEDAYVAVIRPKNTASLNSREYRAKSYEILLHEVPIEGQKKKRKKVLLETKLQGNSEITQGILDYVVETTKPISPANQGIRGKRVVLMKKFPLDGEKMGREASLFIVPSVVKDNTKYTYTPGCPIFYCLQDIMRVCSESSTHFATLTARMLIALDKWLDERHAQSHFIPALFRPSPLERIKTNVINPAYATESGQTENSLHMGYSALEIKSKMLALEKADTCIYNPLFGSDLQYTNRVDKVVINPYFGLGAPDYSKIQIPKQEKWQRSMSSVTEDKERQWVDDFPLHRSACEGDSELLSRLLSERFSVNQLDSDHWAPIHYACWYGKVEATRILLEKGKCNPNLLNGQLSSPLHFAAGGGHAEIVQILLNHPETDRHITDQQGRSPLNICEENKQNNWEEAAKLLKEAINKPYEKVRIYRMDGSYRSVELKHGNNTTVQQIMEGMRLSQETQQYFTIWICSENLSLQLKPYHKPLQHVRDWPEILAELTNLDPQRETPQLFLRRDVRLPLEVEKQIEDPLAILILFDEARYNLLKGFYTAPDAKLITLASLLLQIVYGNYESKKHKQGFLNEENLKSIVPVTKLKSKAPHWTNRILHEYKNLSTSEGVSKEMHHLQRMFLQNCWEIPTYGAAFFTGQIFTKASPSNHKVIPVYVGVNIKGLHLLNMETKALLISLKYGCFMWQLGDTDTCFQIHSMENKMSFIVHTKQAGLVVKLLMKLNGQLMPTERNS

The variants in one experiment derive from B1. Conditions: with ccm2_human CCM2, Q9BSQ5.
Sequence of ccm2_human CCM2, Q9BSQ5 (Q9BSQ5 whole entry): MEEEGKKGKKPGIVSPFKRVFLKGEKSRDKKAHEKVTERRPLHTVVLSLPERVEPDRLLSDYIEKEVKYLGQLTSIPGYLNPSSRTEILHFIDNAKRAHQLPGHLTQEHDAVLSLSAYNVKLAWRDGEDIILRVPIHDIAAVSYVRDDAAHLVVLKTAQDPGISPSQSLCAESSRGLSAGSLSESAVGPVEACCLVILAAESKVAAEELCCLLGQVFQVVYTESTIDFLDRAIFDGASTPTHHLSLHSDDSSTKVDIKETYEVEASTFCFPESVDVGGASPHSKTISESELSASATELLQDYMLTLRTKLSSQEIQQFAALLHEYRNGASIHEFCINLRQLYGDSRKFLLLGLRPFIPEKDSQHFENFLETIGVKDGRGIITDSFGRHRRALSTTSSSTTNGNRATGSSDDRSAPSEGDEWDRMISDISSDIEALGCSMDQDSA
Turning to V244L, the “effect of a mutation on the interaction” value is recorded as “decreasing interaction strength”.

For the variant Y252A;F253A, the “effect of a mutation on the interaction” value is reported as “disrupting interaction strength”.

For the variant V248D, the “effect of a mutation on the interaction” value is on record as “disrupting interaction strength”.

In another experiment the parent is B1. The settings on record: with ccm2_human CCM2, Q9BSQ5. The source holds these as a separate data set.
With Y252A;F253A, the “effect of a mutation on the interaction” value is reported as “with no effect”.

Regarding F234A, the “effect of a mutation on the interaction” value is reported as “with no effect”.

Regarding F234A;Y252A;F253A, the “effect of a mutation on the interaction” value is “decreasing interaction strength”.

In the case of Y195A, the “effect of a mutation on the interaction” value is on record as “with no effect”.

For the origin of these results see IntAct's records for PubMed 25525273.
